Data taken from US20180009871A1 (INTARCIA THERAPEUTICS, published 2018).
Where no end group is shown, it is not given here. [ ]: non-standard residue; d: D form. Aib = CC(C)(N)C(=O)O

How the values were obtained:
[1] = target: human glucagon receptor (GCGR) (human, UniProt P47871 26-477); experiment: cell-based or functional assay
[2] = target: human GLP-1 receptor (GLP-1R) (human, UniProt P43220 24-463); experiment: cell-based or functional assay
human GLP-1 receptor (GLP-1R), sequence (P43220 24-463): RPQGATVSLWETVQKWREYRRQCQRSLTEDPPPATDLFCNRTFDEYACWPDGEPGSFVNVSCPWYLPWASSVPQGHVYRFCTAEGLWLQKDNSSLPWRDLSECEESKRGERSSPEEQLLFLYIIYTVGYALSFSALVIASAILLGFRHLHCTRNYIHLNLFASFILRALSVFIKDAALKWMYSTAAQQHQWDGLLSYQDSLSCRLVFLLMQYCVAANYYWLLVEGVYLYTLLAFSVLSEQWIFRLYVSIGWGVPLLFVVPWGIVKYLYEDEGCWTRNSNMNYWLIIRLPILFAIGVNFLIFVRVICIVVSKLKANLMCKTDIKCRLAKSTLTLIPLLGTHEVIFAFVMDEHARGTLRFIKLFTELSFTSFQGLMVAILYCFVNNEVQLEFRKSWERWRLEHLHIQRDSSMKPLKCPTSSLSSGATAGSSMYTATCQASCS

Binder	hGCGR pEC50 (cAMP) [1] [pEC50]	hGLP1 pEC50 (cAMP) [2] [pEC50]
YSHGTFTSDYSKYLD[Aib]KRAQEFV[Aib]WLEDEPKSKAPPPS-OH (N-terminus assumed; SMILES CC(C)C[C@H](NC(=O)[C@H](Cc1ccc(O)cc1)NC(=O)[C@H](CCCCN)NC(=O)[C@H](CO)NC(=O)[C@H](Cc1ccc(O)cc1)NC(=O)[C@H](CC(=O)O)NC(=O)[C@H](CO)NC(=O)[C@@H](NC(=O)[C@H](Cc1ccccc1)NC(=O)[C@@H](NC(=O)CNC(=O)[C@H](Cc1c[nH]cn1)NC(=O)[C@H](CO)NC(=O)[C@@H](N)Cc1ccc(O)cc1)[C@@H](C)O)[C@@H](C)O)C(=O)N[C@@H](CC(=O)O)C(=O)NC(C)(C)C(=O)N[C@@H](CCCCN)C(=O)N[C@@H](CCCNC(=N)N)C(=O)N[C@@H](C)C(=O)N[C@@H](CCC(N)=O)C(=O)N[C@@H](CCC(=O)O)C(=O)N[C@@H](Cc1ccccc1)C(=O)N[C@H](C(=O)NC(C)(C)C(=O)N[C@@H](Cc1c[nH]c2ccccc12)C(=O)N[C@@H](CC(C)C)C(=O)N[C@@H](CCC(=O)O)C(=O)N[C@@H](CC(=O)O)C(=O)N[C@@H](CCC(=O)O)C(=O)N1CCC[C@H]1C(=O)N[C@@H](CCCCN)C(=O)N[C@@H](CO)C(=O)N[C@@H](CCCCN)C(=O)N[C@@H](C)C(=O)N1CCC[C@H]1C(=O)N1CCC[C@H]1C(=O)N1CCC[C@H]1C(=O)N[C@@H](CO)C(=O)O)C(C)C) [Compound A56]	12.3	< 9
YSHGTFTSDYSKYLD[Aib]KRAQEFV[Aib]WLEDEPKSKQPPPS-OH (N-terminus assumed; SMILES CC(C)C[C@H](NC(=O)[C@H](Cc1ccc(O)cc1)NC(=O)[C@H](CCCCN)NC(=O)[C@H](CO)NC(=O)[C@H](Cc1ccc(O)cc1)NC(=O)[C@H](CC(=O)O)NC(=O)[C@H](CO)NC(=O)[C@@H](NC(=O)[C@H](Cc1ccccc1)NC(=O)[C@@H](NC(=O)CNC(=O)[C@H](Cc1c[nH]cn1)NC(=O)[C@H](CO)NC(=O)[C@@H](N)Cc1ccc(O)cc1)[C@@H](C)O)[C@@H](C)O)C(=O)N[C@@H](CC(=O)O)C(=O)NC(C)(C)C(=O)N[C@@H](CCCCN)C(=O)N[C@@H](CCCNC(=N)N)C(=O)N[C@@H](C)C(=O)N[C@@H](CCC(N)=O)C(=O)N[C@@H](CCC(=O)O)C(=O)N[C@@H](Cc1ccccc1)C(=O)N[C@H](C(=O)NC(C)(C)C(=O)N[C@@H](Cc1c[nH]c2ccccc12)C(=O)N[C@@H](CC(C)C)C(=O)N[C@@H](CCC(=O)O)C(=O)N[C@@H](CC(=O)O)C(=O)N[C@@H](CCC(=O)O)C(=O)N1CCC[C@H]1C(=O)N[C@@H](CCCCN)C(=O)N[C@@H](CO)C(=O)N[C@@H](CCCCN)C(=O)N[C@@H](CCC(N)=O)C(=O)N1CCC[C@H]1C(=O)N1CCC[C@H]1C(=O)N1CCC[C@H]1C(=O)N[C@@H](CO)C(=O)O)C(C)C) [Compound A57]	12	< 9
YSHGTFTSDYSKYLD[Aib]KRAQEFV[Aib]WLEDEPKSKSPPPS-OH (N-terminus assumed; SMILES CC(C)C[C@H](NC(=O)[C@H](Cc1ccc(O)cc1)NC(=O)[C@H](CCCCN)NC(=O)[C@H](CO)NC(=O)[C@H](Cc1ccc(O)cc1)NC(=O)[C@H](CC(=O)O)NC(=O)[C@H](CO)NC(=O)[C@@H](NC(=O)[C@H](Cc1ccccc1)NC(=O)[C@@H](NC(=O)CNC(=O)[C@H](Cc1c[nH]cn1)NC(=O)[C@H](CO)NC(=O)[C@@H](N)Cc1ccc(O)cc1)[C@@H](C)O)[C@@H](C)O)C(=O)N[C@@H](CC(=O)O)C(=O)NC(C)(C)C(=O)N[C@@H](CCCCN)C(=O)N[C@@H](CCCNC(=N)N)C(=O)N[C@@H](C)C(=O)N[C@@H](CCC(N)=O)C(=O)N[C@@H](CCC(=O)O)C(=O)N[C@@H](Cc1ccccc1)C(=O)N[C@H](C(=O)NC(C)(C)C(=O)N[C@@H](Cc1c[nH]c2ccccc12)C(=O)N[C@@H](CC(C)C)C(=O)N[C@@H](CCC(=O)O)C(=O)N[C@@H](CC(=O)O)C(=O)N[C@@H](CCC(=O)O)C(=O)N1CCC[C@H]1C(=O)N[C@@H](CCCCN)C(=O)N[C@@H](CO)C(=O)N[C@@H](CCCCN)C(=O)N[C@@H](CO)C(=O)N1CCC[C@H]1C(=O)N1CCC[C@H]1C(=O)N1CCC[C@H]1C(=O)N[C@@H](CO)C(=O)O)C(C)C) [Compound A58]	12.2	< 9
YSHGTFTSDYSKYLD[Aib]KRAQEFV[Aib]WLEDEPSSKEPPPS-OH (N-terminus assumed; SMILES CC(C)C[C@H](NC(=O)[C@H](Cc1ccc(O)cc1)NC(=O)[C@H](CCCCN)NC(=O)[C@H](CO)NC(=O)[C@H](Cc1ccc(O)cc1)NC(=O)[C@H](CC(=O)O)NC(=O)[C@H](CO)NC(=O)[C@@H](NC(=O)[C@H](Cc1ccccc1)NC(=O)[C@@H](NC(=O)CNC(=O)[C@H](Cc1c[nH]cn1)NC(=O)[C@H](CO)NC(=O)[C@@H](N)Cc1ccc(O)cc1)[C@@H](C)O)[C@@H](C)O)C(=O)N[C@@H](CC(=O)O)C(=O)NC(C)(C)C(=O)N[C@@H](CCCCN)C(=O)N[C@@H](CCCNC(=N)N)C(=O)N[C@@H](C)C(=O)N[C@@H](CCC(N)=O)C(=O)N[C@@H](CCC(=O)O)C(=O)N[C@@H](Cc1ccccc1)C(=O)N[C@H](C(=O)NC(C)(C)C(=O)N[C@@H](Cc1c[nH]c2ccccc12)C(=O)N[C@@H](CC(C)C)C(=O)N[C@@H](CCC(=O)O)C(=O)N[C@@H](CC(=O)O)C(=O)N[C@@H](CCC(=O)O)C(=O)N1CCC[C@H]1C(=O)N[C@@H](CO)C(=O)N[C@@H](CO)C(=O)N[C@@H](CCCCN)C(=O)N[C@@H](CCC(=O)O)C(=O)N1CCC[C@H]1C(=O)N1CCC[C@H]1C(=O)N1CCC[C@H]1C(=O)N[C@@H](CO)C(=O)O)C(C)C) [Compound A54]	12.4	< 9
YSHGTFTSDYSKYLD[Aib]KRAQEFV[Aib]WLEDEPSSKSPPPS-OH (N-terminus assumed; SMILES CC(C)C[C@H](NC(=O)[C@H](Cc1ccc(O)cc1)NC(=O)[C@H](CCCCN)NC(=O)[C@H](CO)NC(=O)[C@H](Cc1ccc(O)cc1)NC(=O)[C@H](CC(=O)O)NC(=O)[C@H](CO)NC(=O)[C@@H](NC(=O)[C@H](Cc1ccccc1)NC(=O)[C@@H](NC(=O)CNC(=O)[C@H](Cc1c[nH]cn1)NC(=O)[C@H](CO)NC(=O)[C@@H](N)Cc1ccc(O)cc1)[C@@H](C)O)[C@@H](C)O)C(=O)N[C@@H](CC(=O)O)C(=O)NC(C)(C)C(=O)N[C@@H](CCCCN)C(=O)N[C@@H](CCCNC(=N)N)C(=O)N[C@@H](C)C(=O)N[C@@H](CCC(N)=O)C(=O)N[C@@H](CCC(=O)O)C(=O)N[C@@H](Cc1ccccc1)C(=O)N[C@H](C(=O)NC(C)(C)C(=O)N[C@@H](Cc1c[nH]c2ccccc12)C(=O)N[C@@H](CC(C)C)C(=O)N[C@@H](CCC(=O)O)C(=O)N[C@@H](CC(=O)O)C(=O)N[C@@H](CCC(=O)O)C(=O)N1CCC[C@H]1C(=O)N[C@@H](CO)C(=O)N[C@@H](CO)C(=O)N[C@@H](CCCCN)C(=O)N[C@@H](CO)C(=O)N1CCC[C@H]1C(=O)N1CCC[C@H]1C(=O)N1CCC[C@H]1C(=O)N[C@@H](CO)C(=O)O)C(C)C) [Compound A55]	12.2	< 9
